In US20230255880A1, “IMMOBILIZED ENZYME-BASED WOUND DEBRIDEMENT” (Guild Associates Inc., priority 2022, published 2023):

Experiments:
[1] = Diffusion through Strat-M membranes in Franz cell (in vitro dermal compatibility); assay type: in vitro ADME; conditions: after 6 hours, averaged across all tests, 37° C., PBS pH 7.4
Text: Strat-M™ membranes (EMD Millipore) were selected and for testing diffusion of the immobilized enzyme through healthy skin. Strat-M is a synthetic polymeric membrane designed to simulate the properties of human skin for transdermal diffusion. The membrane is composed of multiple polyether sulfone layers with a tightly packed surface layer to create a morphology that resembles human skin. The advantage of this material is that it provides a more predictive result, since it has less variability between samples, and is not as limited to storage conditions, safety considerations, and sample availability.
Franz cells with 5 mL receptor volumes were filled with filtered 10 mM PBS buffer at pH 7.4 and held at 37° C. Strat-M membranes were placed on the receptor, covered with 0.3 mL of buffer, and the system was allowed to equilibrate with the receptor fluid for at least 30 minutes. After equilibration 0.5 mL of solutions containing 20-100 mg/mL of natural enzyme, immobilized enzyme, or BSA as a control were added to the top of the Franz cell and the cell was covered. 0.5 mL samples were taken hourly (replacing the volume with fresh PBS buffer each time) for the first 6 hours and a final sample at 24 hours. The protein concentration in each sample was evaluated using a Bradford assay and a 660 nm protein concentration assay from Pierce. The enzyme activity of the 24-hour samples was evaluated to determine if active enzyme or just peptides had passed through the membrane.

[2] = tested on: Human keratinocytes; test: Keratinocyte compatibility testing, resazurine-based assay; assay type: cell-based
Experimental: (§1) Immobilized enzyme samples were further analyzed to determine if they have a detrimental effect on healthy tissue surrounding a burn wound. Human keratinocytes and fibroblasts obtained from ATCC, were seeded at cell densities of 2×10^4 in 24 well plates 6 days prior to experiments and incubated at 37° C. under 5% CO2. On day 7 a stock solution of 100 mg/mL an immobilized enzyme or natural enzyme is prepared in either PBS or a culture medium. Cells were treated with 500 μL of the enzyme solution, at several dilutions, for up to 6 hours. At the end of the test, the enzyme solution is removed, cells were washed twice with PBS, and 500 μL of the appropriate cultivation media is added. The effect of the different concentrations of enzyme on the cells is assessed using a resazurine-based assay and life cell imaging. In this case the fluorescence signal is proportional to the amount of vital cells. All enzyme concentrations were measured in triplicate (n=3). The enzyme containing fluid removed after 6 hours of exposure to cells is evaluated using the methods described above for enzymatic activity. Data determined above is used to compensate for autolytic degradation in test samples.

[3] = tested on: casein; test: pH stability and autolytic resistance, 6 hours at 37° C. in phosphate buffer; assay type: physicochemical; conditions: for Retained activity after 6 hours of exposure: phosphate buffer, average of 5 ± standard error
Experimental: Natural (non-immobilized) and immobilized forms of each enzyme were loaded into 10 mL of phosphate buffer solutions at pH 7.0, 6.0, and 5.0 and mixed for 6 hours at 37° C. These pH values were selected as representative of the range of pH of intact to wounded skin. The amount of natural or immobilized enzyme material that was added at the start of the test was based on its measured activity, so that all tests started with similar enzyme activities for each enzyme: 2.6 U bromelain, 21 U collagenase, and 5.4 U trypsin. Retained activity was determined by taking a sample of the test solution at a given time point and evaluating it against casein. The measured activity of the test sample was divided by the activity measured at the start of the test and is presented as the average of 5 measurements±standard error, Table 2.

[4] = tested on: Human fibroblasts; test: Fibroblast compatibility study, resazurine-based assay; assay type: cell-based; conditions: all tested concentrations
Experimental: as §1

Row | Substance | Amount of protein passing through Strat-M membranes [1] [mg] | Relative signal ([2]; all tested concentrations) | Retained activity after 6 hours of exposure ([3]; pH 5, 37° C.) | Retained activity after 6 hours of exposure ([3]; pH 6, 37° C.) | Loss of starting activity after 6 hours ([3]; pH 7) [%] | Retained activity after 6 hours of exposure ([3]; pH 7, 37° C.) | Relative signal (cell growth) [4] | Highest relative signal ([2]; 40 mg/mL) | Retained activity after 6 hours of exposure ([3]; pH 5, 37° C., listed as bromelain Natural) | Loss of initial activity within 6 hours ([3]; all pH tested)
1 | trypsin | 11.93 ± 0.50 | around 1 | 43.3% ± 1.1% | 46.1% ± 1.2% | 92 | 7.7% ± 5.3% | almost no change to cell growth | – | – | –
2 | bromelain | 2.08 ± 0.25 | – | – | 36.1% ± 1.4% | – | 64.7% ± 3.0% | – | 6.71 | 95.6% ± 4.9% | –
3 | collagenase | 18.15 ± 0.81 | – | 12.3% ± 4.5% | 18.9% ± 1.3% | – | 13.9% ± 3.3% | ~1 | – | – | 80-90%
